# Measured values published in paper PMC12183613, “Identification of novel small molecule inhibitors of ETS transcription factors”.
# B1: 3x consensus ETS oligonucleotide (biotinylated) (dsDNA)
# DNA 1: ACCGGAAGTACCGGAAGTACCGGAAGT
# DNA 2: ACTTCCGGTACTTCCGGTACTTCCGGT
# Molecular target: ETV6 full-length (UniProt P41212 1-452)
# Assay: pull-down; fragment Fr18 (enhanced binding); Pull-down: 4 C, 30 min, 1 ug poly(dI/dC), 4 mM spermidine; wash in binding buffer 50 mM KCl, 10 mM HEPES pH 7.6, 5 mM MgCl2, 10 mM Tris pH 8, 0.05 mM EDTA, 0.1% Triton X-100, 20% glycerol. SPR: 25 mM HEPES pH 7.5, 100 mM NaCl, 1 mM EDTA, 1 mM beta-mercaptoethanol; NMR same buffer (296 K)
# Settings: protein: ivt; tags: FLAG; only one strand given
# Chain of ETV6 full-length (P41212 whole entry, the tested form may be a part): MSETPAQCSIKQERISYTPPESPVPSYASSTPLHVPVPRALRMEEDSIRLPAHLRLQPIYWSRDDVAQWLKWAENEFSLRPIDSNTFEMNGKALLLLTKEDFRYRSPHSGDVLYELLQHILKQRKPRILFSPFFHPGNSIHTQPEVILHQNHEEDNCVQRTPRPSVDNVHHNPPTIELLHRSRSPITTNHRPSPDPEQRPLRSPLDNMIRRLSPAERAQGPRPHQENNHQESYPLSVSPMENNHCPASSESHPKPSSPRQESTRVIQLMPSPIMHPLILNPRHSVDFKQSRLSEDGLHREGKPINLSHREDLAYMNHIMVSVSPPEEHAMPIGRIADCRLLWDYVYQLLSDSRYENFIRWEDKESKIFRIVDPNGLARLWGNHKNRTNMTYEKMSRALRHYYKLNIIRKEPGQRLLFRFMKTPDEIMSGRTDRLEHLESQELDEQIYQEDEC
binder,measurement,value
B1,binding result,binds
